Laboratory results as given in the supplement of paper PMC10126150.
± gives the standard deviation of the averaged measurements.

Tested on: ATP
Experiment: switch fluorescence ratio, 500 uM ATP over buffer (Cy3 cluster intensity, sum of 5 cycles each) (fold (ratio)); higher = stronger signal-on switching upon ATP binding; sequences stand for … in TCGTCGGCAGCGTCAGATGTGTATAAGAGACAGTTTTTTTTTTTTTTTTTTTTTTTTT…TC
Settings: aptamer strand: ATP DNA aptamer (quencher-CACCTGGGGGAGTATTGCGGAGGAAGG + anchor), 100 nM annealed; ATP concentration: 500 uM
Outline: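 Exposure to 500 uM ATP lasted 15 min at 22 °C before imaging, and a selection-buffer image was taken beforehand, for Cy3-labelled switching-strand clusters on a modified Illumina MiSeq flow-cell annealed to 100 nM quencher-labelled ATP aptamer. Five buffer/ATP cycles were run with NaOH stripping and re-annealing between them. The fluorescence ratio per cluster is summed target-cycle over summed buffer-cycle Cy3 intensity, averaged per switch-domain sequence. Clusters outside 100-1000 RFU were excluded.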

**Q.** For GGTGGCTTTT, which switch fluorescence ratio is on record?
**A.** The switch fluorescence ratio was 1.02 ± 0.099.

**Q.** With GGAGAAATCT as the sequence, how does the switch fluorescence ratio read?
**A.** Its switch fluorescence ratio is 1.12 ± 0.022.

**Q.** Which switch fluorescence ratio does the source give for AGTCGGCTGT here?
**A.** Its switch fluorescence ratio is 0.99449 ± 0.00015.

**Q.** Which switch fluorescence ratio does the source give for TGGTCTGCCC here?
**A.** The switch fluorescence ratio was 0.975 ± 0.053.

**Q.** How did the switch fluorescence ratio turn out when TTTCGTACGG was run?
**A.** Its switch fluorescence ratio is 1.03 ± 0.087.

**Q.** How did the switch fluorescence ratio turn out when ACTACCGGCG was run?
**A.** The switch fluorescence ratio was 1.09 ± 0.022.

**Q.** GAGTTGGGGT was tested. Which switch fluorescence ratio did it give?
**A.** Its switch fluorescence ratio is 0.986 ± 0.018.

**Q.** Which switch fluorescence ratio does the source give for GTAGAGAACT here?
**A.** The switch fluorescence ratio was 1 ± 0.021.

**Q.** For GTTTCTCATC, which switch fluorescence ratio is on record?
**A.** Its switch fluorescence ratio is 1.02 ± 0.011.

**Q.** With TGCGGGGAGA as the sequence, how does the switch fluorescence ratio read?
**A.** Its switch fluorescence ratio is 1.02 ± 0.024.

**Q.** With TGGGGCCGCG as the sequence, how does the switch fluorescence ratio read?
**A.** The switch fluorescence ratio was 1.048 ± 0.0092.

**Q.** Which switch fluorescence ratio does the source give for GGATGGTGGG here?
**A.** Its switch fluorescence ratio is 1.01 ± 0.042.

**Q.** GAAGATACGG was tested. Which switch fluorescence ratio did it give?
**A.** The switch fluorescence ratio was 1.03 ± 0.032.

**Q.** How did the switch fluorescence ratio turn out when TTGAGGGGGT was run?
**A.** Its switch fluorescence ratio is 1.05 ± 0.16.

**Q.** Which switch fluorescence ratio does the source give for ACCGGGGCTA here?
**A.** The switch fluorescence ratio was 1.03 ± 0.031.

**Q.** With AAGGGTTAGA as the sequence, how does the switch fluorescence ratio read?
**A.** The switch fluorescence ratio was 0.9864 ± 0.0021.

**Q.** Which switch fluorescence ratio does the source give for TGCATTACCC here?
**A.** The switch fluorescence ratio was 1.25 ± 0.41.

**Q.** GTGGTTATGC was tested. Which switch fluorescence ratio did it give?
**A.** The switch fluorescence ratio was 1.02 ± 0.033.

**Q.** GGGCGGGGGA was tested. Which switch fluorescence ratio did it give?
**A.** The switch fluorescence ratio was 1.06 ± 0.079.

**Q.** How did the switch fluorescence ratio turn out when CGGGTTTAAG was run?
**A.** Its switch fluorescence ratio is 0.9933 ± 0.0026.

**Q.** How did the switch fluorescence ratio turn out when TTAAACTGGT was run?
**A.** The switch fluorescence ratio was 1.04 ± 0.034.

**Q.** CAGTTAGATA was tested. Which switch fluorescence ratio did it give?
**A.** The switch fluorescence ratio was 1.02 ± 0.031.

**Q.** For GGTTTTTGCG, which switch fluorescence ratio is on record?
**A.** The switch fluorescence ratio was 1.0217 ± 0.0008.

**Q.** With TGTTTATCAT as the sequence, how does the switch fluorescence ratio read?
**A.** Its switch fluorescence ratio is 0.978 ± 0.017.

**Q.** With CGGGGGCTGC as the sequence, how does the switch fluorescence ratio read?
**A.** Its switch fluorescence ratio is 1.13 ± 0.1.

**Q.** For TGGCTTTTTG, which switch fluorescence ratio is on record?
**A.** The switch fluorescence ratio was 0.9898 ± 0.0035.

**Q.** Which switch fluorescence ratio does the source give for GTATTTAAAT here?
**A.** Its switch fluorescence ratio is 0.9855 ± 0.0018.

**Q.** How did the switch fluorescence ratio turn out when TTTCTAACTC was run?
**A.** Its switch fluorescence ratio is 1 ± 0.053.

**Q.** For ATTCCTAGTG, which switch fluorescence ratio is on record?
**A.** Its switch fluorescence ratio is 1.03 ± 0.035.

**Q.** For TGGGAGGCAT, which switch fluorescence ratio is on record?
**A.** Its switch fluorescence ratio is 1.01 ± 0.027.

**Q.** Which switch fluorescence ratio does the source give for CATTAATTGT here?
**A.** Its switch fluorescence ratio is 1.025 ± 0.0034.

**Q.** For TTTTATAGAA, which switch fluorescence ratio is on record?
**A.** Its switch fluorescence ratio is 1.0092 ± 0.00051.

**Q.** Which switch fluorescence ratio does the source give for CAGCGTCGT here?
**A.** The switch fluorescence ratio was 1.02 ± 0.025.

**Q.** CGTAGGAAAA was tested. Which switch fluorescence ratio did it give?
**A.** Its switch fluorescence ratio is 0.98 ± 0.096.

**Q.** How did the switch fluorescence ratio turn out when CAGCTCATGC was run?
**A.** The switch fluorescence ratio was 1.0792 ± 0.00059.

**Q.** TTGTTCAGTT was tested. Which switch fluorescence ratio did it give?
**A.** Its switch fluorescence ratio is 1.02 ± 0.036.

**Q.** With ACGCGGTCCA as the sequence, how does the switch fluorescence ratio read?
**A.** The switch fluorescence ratio was 0.988 ± 0.019.

**Q.** For TTGGGTAAGC, which switch fluorescence ratio is on record?
**A.** The switch fluorescence ratio was 0.994 ± 0.066.

**Q.** For ATATGGTCAT, which switch fluorescence ratio is on record?
**A.** Its switch fluorescence ratio is 0.9719 ± 0.0021.

**Q.** For AGTATGTATG, which switch fluorescence ratio is on record?
**A.** The switch fluorescence ratio was 1.02 ± 0.024.

**Q.** With TTTTGCGCGA as the sequence, how does the switch fluorescence ratio read?
**A.** Its switch fluorescence ratio is 1.09 ± 0.095.

**Q.** With AAATACGGTG as the sequence, how does the switch fluorescence ratio read?
**A.** The switch fluorescence ratio was 1.17 ± 0.16.

**Q.** For CAGGGTGCTA, which switch fluorescence ratio is on record?
**A.** The switch fluorescence ratio was 1 ± 0.075.

**Q.** Which switch fluorescence ratio does the source give for GCCGGCACTG here?
**A.** Its switch fluorescence ratio is 1.002 ± 0.0064.

**Q.** How did the switch fluorescence ratio turn out when ATTTATGTTA was run?
**A.** Its switch fluorescence ratio is 0.985 ± 0.012.

**Q.** How did the switch fluorescence ratio turn out when CATTATTATT was run?
**A.** The switch fluorescence ratio was 0.9975 ± 0.0058.

**Q.** With GGAGCAGGGA as the sequence, how does the switch fluorescence ratio read?
**A.** The switch fluorescence ratio was 0.963 ± 0.025.

**Q.** How did the switch fluorescence ratio turn out when GGGCTTTATG was run?
**A.** The switch fluorescence ratio was 0.986 ± 0.023.

**Q.** With GGGAAAGGGC as the sequence, how does the switch fluorescence ratio read?
**A.** The switch fluorescence ratio was 0.961 ± 0.021.

**Q.** CGGGGGAGAC was tested. Which switch fluorescence ratio did it give?
**A.** Its switch fluorescence ratio is 0.971 ± 0.019.

**Q.** ATGCGGTATG was tested. Which switch fluorescence ratio did it give?
**A.** The switch fluorescence ratio was 1 ± 0.0024.

**Q.** For AGAAACAGCT, which switch fluorescence ratio is on record?
**A.** The switch fluorescence ratio was 1.04 ± 0.046.

**Q.** TTAATCGCTC was tested. Which switch fluorescence ratio did it give?
**A.** Its switch fluorescence ratio is 1.02 ± 0.021.

**Q.** For CGGTGTGTAG, which switch fluorescence ratio is on record?
**A.** Its switch fluorescence ratio is 0.983 ± 0.062.

**Q.** TGAAATGGTT was tested. Which switch fluorescence ratio did it give?
**A.** Its switch fluorescence ratio is 1.01 ± 0.017.

**Q.** With TTCACGGTTG as the sequence, how does the switch fluorescence ratio read?
**A.** The switch fluorescence ratio was 1.04 ± 0.061.

**Q.** With CGAGTTAGGC as the sequence, how does the switch fluorescence ratio read?
**A.** The switch fluorescence ratio was 1.03 ± 0.063.

**Q.** TGCATCTGAG was tested. Which switch fluorescence ratio did it give?
**A.** The switch fluorescence ratio was 1 ± 0.021.

**Q.** With CGTCGGCAAA as the sequence, how does the switch fluorescence ratio read?
**A.** Its switch fluorescence ratio is 3.42 ± 0.21.

**Q.** For GGTGGGCGGA, which switch fluorescence ratio is on record?
**A.** Its switch fluorescence ratio is 1.01 ± 0.029.

**Q.** GGGGGCCCGA was tested. Which switch fluorescence ratio did it give?
**A.** Its switch fluorescence ratio is 0.9925 ± 0.0076.

**Q.** TGGAAAACCG was tested. Which switch fluorescence ratio did it give?
**A.** The switch fluorescence ratio was 1.08 ± 0.022.

**Q.** Which switch fluorescence ratio does the source give for TTTTATGCCC here?
**A.** Its switch fluorescence ratio is 0.9772 ± 0.0032.

**Q.** For GATGATGGGC, which switch fluorescence ratio is on record?
**A.** Its switch fluorescence ratio is 0.996 ± 0.035.

**Q.** How did the switch fluorescence ratio turn out when CTAACGCCTG was run?
**A.** The switch fluorescence ratio was 1.03 ± 0.07.

**Q.** Which switch fluorescence ratio does the source give for TTGGAGGTTC here?
**A.** Its switch fluorescence ratio is 0.99 ± 0.063.

**Q.** Which switch fluorescence ratio does the source give for AAAAAGAAAG here?
**A.** Its switch fluorescence ratio is 1.02 ± 0.022.

**Q.** TTGGGGGGCC was tested. Which switch fluorescence ratio did it give?
**A.** The switch fluorescence ratio was 1.01 ± 0.031.

**Q.** How did the switch fluorescence ratio turn out when GCAGGGGGAG was run?
**A.** Its switch fluorescence ratio is 1.02 ± 0.0081.

**Q.** With GGTAGGCGGG as the sequence, how does the switch fluorescence ratio read?
**A.** The switch fluorescence ratio was 0.959 ± 0.018.

**Q.** With CTAGGTTTGA as the sequence, how does the switch fluorescence ratio read?
**A.** Its switch fluorescence ratio is 0.987 ± 0.019.

**Q.** How did the switch fluorescence ratio turn out when TTATCCTTTA was run?
**A.** The switch fluorescence ratio was 1.02 ± 0.012.

**Q.** For AGGATGGAGG, which switch fluorescence ratio is on record?
**A.** Its switch fluorescence ratio is 1.035 ± 0.0019.

**Q.** For GAGGAGAATT, which switch fluorescence ratio is on record?
**A.** Its switch fluorescence ratio is 0.983 ± 0.018.

**Q.** With CGGTGACTGC as the sequence, how does the switch fluorescence ratio read?
**A.** Its switch fluorescence ratio is 1.02 ± 0.099.

**Q.** Which switch fluorescence ratio does the source give for AAGAAAGTCG here?
**A.** The switch fluorescence ratio was 0.9998 ± 0.0052.

**Q.** TTTTTTAAGA was tested. Which switch fluorescence ratio did it give?
**A.** The switch fluorescence ratio was 1.01 ± 0.025.
